# Reference: the DeepSol protein solubility set
# Test: soluble on expression in E. coli; label from the status in PepcDB or PDB records
row,Sequence,soluble on expression in E. coli
1,MRLFHTSDWHLGQNLHGQERDFEHACFLTWLLARLAERQPDVLLIAGDIFDTVNPPVKAQERLYDFIVNAHEQQPLLTIVMIAGNHDSGSRIELPAPLMRRLRTHALGRVMWLNDGVLDAERLLLPLPDANGDIKAWCLALPFLRPAEVTGPTLGDDYLRGIGRVHELLIDAANLKRQPGQALIAISHAHMAGGSVSEDSERSLIIGNAEALPASLFGPSITYVALGHLHKPQRVNGEERIRYSGSPIPLSFSEIGYQHQILEINCDGDTLTSVEPCLIPRAVNLQRLGPAPLADLLVQLKSLPDIDLLADPDRQPWLEVRVRLDEPQPDLRNQIETALQGKAVRLVRIGAEYAGKGSADGSDGEAGLIELDQLTPQELFSRAWQDNFGSEVDEQTLTDFATLLREVQQESEQP,not soluble
2,MSLLVIVKVQQAKNPLERAFFYAVSPEDYYEQAERLLKEGVIDEEGLKKARIEEYVLGARFNANFHSYALKDVFGNFDFVGFSDRRQVNLQGFLNLPAKDQLKINVPVKNEEIGHFGVTMRESKQQEVYEAAEKFIEACKAEFPPGIIGMFGLQGAMAYSPEDETKLEFVIFDVSFRVPGDPAIGPTSPEMRNLTLKHGVKIEDPLDLTMMEIKKAMELKRMEEIVTEGHHHHHH,soluble
3,MQNNDFRTGSGSLKGSSTGVLKQFLFENVFICRIGVIKSFDFETQKGVVTIKEYEGLEISTCSISNFNFDLTAEDEVILLQSNFNIFQESDNNHFDKNYFYILSVLNPKKIGIRLDQFELSVQELGAQSENIKFKAKKLIIDVDNIEIKGNLKINGTKFENHMHSSGTLTYVNSSGVPTTTTGKTGPIA,soluble
4,MLSVIIITKNEEANIRRCLESVHFADEIIVLDSGSTDNTLAIAREYTDKVFSTDWQGYGIQKDRALQKAQGDWVLNLDADESVSSELRQEILQAISSDTADAFRIPIQMIFYNQVLKYSGSPKRHIRLFKRENASYSKDIVHEKVLIPVNARVGKLKKPIWHHSFSDVHHVLYKLNKYSSYSAKIRIESNEKVGLVKTFFSALWMFVRCLFLQKGFLDGRAGFLFAVFGAQGAFYRGVKQIYKDRDINKLPSVNHIKEELEHHHHHH,soluble
5,MPVANDAPGVDIEGTDADAESGDLPINELFQSLQGEGRLAGVPSVFVRTSGCNLRCWFCDSYHTSWEPTHDWFTVDDVLAAIEEYDANHVVLTGGEPLIHDSSEDLLARLTDRGYHTTVETNGTVVPDAPIDLASVSPKLASSTPTADRDPDGNGEWADRHEERRLDVPTLAELVETYDTQLKFVVTGREDMAEIERLLKRLRDAASTCVRDDDVLLMPEGQTRDQLEATRETVADLALEHGYRYTPRLHVDLWNDAPGT,not soluble
6,MPDISIILLGNYAPDQVIHARLLFMRMEQVPGGHHLQILQFRFTIPFRQADFCSLDQSDVMCSETHCYYLMNLKVGAFFETAQNILMIRWLFS,not soluble
7,MKSLITAGLVFSLIASSYSAQAEEKQSGDLAADIGAVGIPVIAGSIALYKEDYDGFWMFAKGATYTLAATQALKYTVKEERPNGEDNLSFPSGHSSSAFQGASYLQFRYGWEYGVPAYIGASLVGYSRVENEHHYWRDVIAGAVLATTIQYLVTDKYLDSNSVMIAPVINDDHVGIAASFSF,not soluble
8,MAFPAGFGWAAATAAYQVEGGWDADGKGPCVWDTFTHQGGERVFKNQTGDVACGSYTLWEEDLKCIKQLGLTHYRFSLSWSRLLPDGTTGFINQKGIDYYNKIIDDLLKNGVTPIVTLYHFDLPQTLEDQGGWLSEAIIESFDKYAQFCFSTFGDRVKQWITINEANVLSVMSYDLGMFPPGIPHFGTGGYQAAHNLIKAHARSWHSYDSLFRKKQKGMVSLSLFAVWLEPADPNSVSDQEAAKRAITFHLDLFAKPIFIDGDYPEVVKSQIASMSQKQGYPSSRLPEFTEEEKKMIKGTADFFAVQYYTTRLIKYQENKKGELGILQDAEIEFFPDPSWKNVDWIYVVPWGVCKLLKYIKDTYNNPVIYITENGFPQSDPAPLDDTQRWEYFRQTFQELFKAIQLDKVNLQVYCAWSLLDNFEWNQGYSSRFGLFHVDFEDPARPRVPYTSAKEYAKIIRNNGLEAHL,soluble
9,MIFHDVVESDLHDWECDDDYVCKFCTVRVNNWKIEIYQLWHYFFFLKDVVGVIVRKLNIAIDRDYTCEGLHVAGLIGYDYDKVEEYTGMCTICKLGDCGGMCRRVVEHCKKCGPIQEGVFETPFEKPHHFESLEITSFTIDCLLYGNRFRPTLVNFKNAPITVDSLSINAPSSGIPKVFLSAMMISKWKLLILKTCEDSPYAMEELQLSLTGKMLEEMSNNDYKVKHFRKCFPTKKMSIKILSQIENIQDIRKLCIQEKNLDLAIDIICDKSLLLKFWVSQKNTRGSFWKMKML,not soluble
10,MGSDKIHHHHHHMTKHLYIDEYGSFVGKTSERLTVSQGGELKAEIPLSRLKSVNILKGGISLSSDIIEACSLRGIKIFFLDFRNVAHTAITSTANHAVANVRKAQFLTIESNHGREIARTLIVGKLKNQRATLQYFYKYLKNTDKQSKKLESAIEKIKETIESLKNIELSNNKHWSQIIMGKEGGMAAIYFDAIGAELLEECDFTTRIGRGAEDIMNSALNYGYAILTSFVWQSIINAGLEAYAGVLHTNRPGKPSLVLDVMEEYRAWVVDRNIIKLRSSLAGKKELDAELKKKIITEINATMNKKHLYNGKNLSLQGVMQRQVYRLVGAFMQQNRYKSYIFKW,not soluble
11,MFRNVAELVALAEKDSIKIAEVMIRQEVEVSGRSREEVIAQMDHHLSVMERAVERGLEGVVSRSGLTGGDAVRMQRYIEGGRFLSGETILDAVSKAMATNEVNAAMGVICATPTAGAAGVVPGTLFAVKEKLRPTRMEMIEFLFTAGAFGYVVANNASISGAAGGCQAEVGSAAGMAAAALVELAGGTPGQAAEAMAIALKNMLGLVCDPVAGLVEVPCVKRNAMGAANAMIAADMALAGIKSRIPCDEVIEAMYRIGAAMPVALKETAQGGLAATPTGRAIAARIFGASAASK,not soluble
12,MNDTAGELEFVPLAANDDETVGQWLDLMALAAETGPRAAPPCNVDMVGSLRFAPPATALDDWVVRSGGRVVGALRLALPDGAPTARVDQLLVHPGRRRRGIGRALWAHARELARKHDRTTLTATVVESLPSGPAQDPGPAAFAAAMGAHRSDIPAGTHQWLDLDRHDPLADGVPAVPAGYSLVTWGTITPDEYAVPVSELELSLGAGPVDRAAQEVRTSYARQFETMRVGRGRRAYHTGAVHDATGALAGYTSVSKTTGNPAYALQGMTVVHREHRGHALGTLLKLANLEYVLRHEPEVRLVETANAEDNHPMIAVNAALGFEPYDRWVFWTAEAGPSD,soluble
13,MSMLPTFGFTQEQVACVCEVLQQGGNIERLGRFLWSLPACEHLHKNESVLKAKAVVAFHRGNFRELYKILESHQFSPHNHAKLQQLWLKAHYIEAEKLRGRPLGAVGKYRVRRKFPLPRSIWDGEETSYCFKEKSRSVLREWYAHNPYPSPREKRELTEATGLTTTQVSNWFKNRRQRDRAAEAKERENNENSNSNSHNPLNGSGKSVLGSSEDEKTPSGTPDHSSSSPALLLSPPPPGLPSLHSLGHPPGPSAVPVPVPGGGGADPLQHHHGLQDSILNPMSANLVDLGS,soluble
14,MRSIVGDLLLLRLGDVAEGPMNQRLYRAIREAILDGAIAADTRLPATRDLAAELGIARNTVVHVYSQLQAEGYTHSRQGNGTFVTASLPDAYLASGRHARRPAIAAVRPTLSERGARIVDQVSASPYQWGAFMPGVPDLTEFPHQKFGRLFSTLWRNPHPEMLTYAYGGGLPALREALAQHLALTRSIDCDPEQIIITEGSHQAIDLATRILGGHGDLAWIENPGYWGARSVLIANGIRIEPLPVDEEGMQLPAEPVAQPPRFIFVTPSHQYPLGSVMSLARRRQLLALARSWGSWIIEDDYDSEFRFSGRPISSLQGLEPDAPVIYLGTFSKTLYPGLRVGYLVLPKALAGAFQAAHAELYREGHLVTHAVLASFIAEGHYAAHIRRMRMLYGRRRAILVNLIERRLGAQWLHPDSSDAGLHLVLDFPSGLDDKQVMQAAHARGVLTRALSRYYAEGTTPRQGLLLGYACVPENDIARKFELVLDSLAEVAQRSRA,not soluble
15,MLNIQNYSASPHPGIVAERPQTPSASEHVETAVVPSTTEHRGTDIISLSQAATKIHQAQQTLQSTPPISEENNDERTLARQQLTSSLNALAKSGVSLSAEQNENLRSAFSAPTSALFSASPMAQPRTTISDAEIWDMVSQNISAIGDSYLGVYENVVAVYTDFYQAFSDILSKMGGWLLPGKDGNTVKLDVTSLKNDLNSLVNKYNQINSNTVLFPAQSGSGVKVATEAEARQWLSELNLPNSCLKSYGSGYVVTVDLTPLQKMVQDIDGLGAPGKDSKLEMDNAKYQAWQSGFKAQEENMKTTLQTLTQKYSNANSLYDNLVKVLSSTISSSLETAKSFLQGLEHHHHHH,soluble
16,MFRIGQGFDVHQLVEGRPLIIGGIEIPYEKGLLGHSDADVLLHTVADACLGAVGEGDIGKHFPDTDPEFKDADSFKLLQHVWGIVKQKGYVLGNIDCTIIAQKPKMLPYIEDMRKRIAEGLEADVSQVNVKATTTEKLGFTGRAEGIAAQATVLIQKG,not soluble
17,MSILDTEVTLINGEKASMDQWAGHCLLIVNTASECGYTPQLETLEELYEDYAMRGFFVIGVPCNQFGEEEPGKDAQVARRYEEKFGVRFPLLAKSDVNGPNTIELYKKLKGDGPDIEWNFEKFIVAPSGEVVGRFAPSLDPDDMKIINVLEEYLPI,soluble
18,MKIGVFDSGVGGLSVLKSLYEARLFDEIIYYGDTARVPYGVKDKDTIIKFCLEALDFFEQFQIDMLIIACNTASAYALDALRAKAHFPVYGVIDAGVEATIKALHDKNKEILVIATKATIKSEEYQKRLLSQGYTNINALATGLFVPMVEEGIFEGDFLQSAMEYYFKNITTPDALILACTHFPLLGRSLSKYFGDKTKLIHSGDAIVEFLKERENIDLKNHKAKLHFYASSDVESLKNTAKIWLNLLRK,not soluble
19,MSDKPEDENTNENPGRRRFLGGMAALGAGVTLSGYVSAHERPPAEAEKHHLVGPALDRALRENVKTVVVIYAENRSFNNLFGNFPGVQKPLSSVRPADYVQRDRNGTLLDKLPPAWGGVLQVGPQTVDGVTYPVGVQFQENLPNAPFPLKGPNAEDLPLSLVTRDLWHVFYQNQMQINDGKNDRFVAWADAGGLTMGNYAQTQYSLRLWDVAKEFVLCDNFFQGAFGGSFLNHQYLISATAPIYPNAADSPAKSQIASLQSMNPLDSRLKPLDKSPASAMEGPPQFGPSAITPDNYAVNTLAPPYWPTWLRDPQNPDYSKPDLANVLVPQSHEHIGDKLSKRNVDWAWYAGAWQVTLDEFKDSTGIPKIPNFQYHHQPFNYFKQQGPQNPEERKKRLRDGGLGDESSTNRFLADAEAGKLPAVAFYKPQGNLNMHAGYADVASGDRHIDRVIKVLRNSPQWDNMVIVVTVDENGGWWDHVAPPKGDRFGPGTRIPALVISPFARKGKVDHTVYDTASILRLITRVHGLEKLDGLKRRDEAMIARGQAPMGDLTNALHFPALEHHHHHH,soluble
20,MRRTLVVPDVLLLGTLLAGLLLLSGCEGDYRPRAVGPIGEITVVMDSSHWTGPSGEALRANVTPWVETLPVSERSFQLRHLELTDERTYERVQDLKNVIIAAPLSDSTNETSFLRRRLSDEAEQAILDGQTAVVPKPNLWRRSQRIYYVAAASPDALAETFQSQGTQIRDTFTEATLQRMDRNMYEDDRRSALEDTLMQRHGFAVNMQSDFQIAVDTTTGSEGFVWLRRLLAQTRREFFVYYVEDVSPDQITPEWIYNTRDSLTRRHLRGNVRGFAKIDYRRPLKTEQRSFLDRYAYDSRGLWYMVAPLGGGNELRPVGGGGPFVNYTFYDQATDRVYMLDGSIFAPDNDKIDLLRQMEVMARTFRTAEGSRSPDASPTAAKLEHHHHHH,not soluble
